Results on one substance are retold here after patent US20050106141A1, “Hairless protein-interacting partner complexes and methods thereof for the beautification and/or improvement of mammalian skin” (The Procter & Gamble Company, priority 2003, published 2005).

This test has as its target LexA BD-HRt (mouse). In words: yeast two-hybrid library screen; number of positive clones with this identity.

LexA BD-HRt (mouse), sequence (P0A7C2 other isoform, or with tags, fused parts or gaps limits assumed): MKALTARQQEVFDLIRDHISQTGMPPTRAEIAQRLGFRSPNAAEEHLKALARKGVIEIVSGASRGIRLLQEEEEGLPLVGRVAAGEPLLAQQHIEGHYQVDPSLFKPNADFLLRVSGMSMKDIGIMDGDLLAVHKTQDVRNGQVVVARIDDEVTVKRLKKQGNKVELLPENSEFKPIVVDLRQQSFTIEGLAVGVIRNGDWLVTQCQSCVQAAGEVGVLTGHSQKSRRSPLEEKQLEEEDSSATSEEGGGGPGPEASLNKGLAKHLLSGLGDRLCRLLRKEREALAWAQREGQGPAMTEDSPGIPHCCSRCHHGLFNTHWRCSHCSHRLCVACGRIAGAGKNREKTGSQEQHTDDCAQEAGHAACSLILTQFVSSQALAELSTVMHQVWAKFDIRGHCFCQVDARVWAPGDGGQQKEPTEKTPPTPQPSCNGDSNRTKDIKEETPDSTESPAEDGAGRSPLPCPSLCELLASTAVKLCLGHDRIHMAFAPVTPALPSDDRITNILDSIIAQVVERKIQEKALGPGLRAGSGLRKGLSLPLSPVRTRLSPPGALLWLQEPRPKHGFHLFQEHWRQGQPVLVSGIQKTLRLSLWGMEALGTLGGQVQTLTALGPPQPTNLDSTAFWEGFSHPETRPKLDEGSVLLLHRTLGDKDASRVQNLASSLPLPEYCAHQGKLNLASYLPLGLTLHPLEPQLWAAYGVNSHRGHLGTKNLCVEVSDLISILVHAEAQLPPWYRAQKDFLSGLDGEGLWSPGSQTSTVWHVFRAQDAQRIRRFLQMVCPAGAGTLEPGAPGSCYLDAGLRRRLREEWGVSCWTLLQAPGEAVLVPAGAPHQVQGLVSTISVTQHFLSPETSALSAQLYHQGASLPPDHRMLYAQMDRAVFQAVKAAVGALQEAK

“Homo Sapiens HIC Protein Isoform P32 and Isoform 40 (from UniProt Q9P1T7 1-246)” came in with a Hits of 1.
